{"source": "patent US4125375A", "about": "“Separation of solid and liquid components of mixtures” (National Research Development Corporation, priority 1975, dated 1978)", "system": "antibody to BTG coupled to Sepharose 4B", "test": "Radioimmunoassay for platelet β thromboglobulin (BTG), Sepharose 4B-coupled antibody separated by sucrose layering", "type": "binding", "description": "After primary incubation with ^125 I BTG, 1 ml aliquots of standard BTG of known concentrations in the range from 0.2 to 25.6 µg/ml are incubated in 75 × 17 mm sample tubes with an antibody to BTG coupled to Sepharose 4B. After incubation the Sepharose 4B and supernatant are separated by the method of the invention as follows.\n1 ml of diluent is added to each sample tube followed by 6 ml of 10% w/v sucrose in water. The sucrose solution is added over a period of about 15 seconds through a stainless steel probe by means of a peristaltic pump. The outlet of the probe is positioned about 0.5 cm from the bottom of the sample tube, and the sucrose solution forms a discrete layer beneath the incubate. In this way the sucrose addition is carried out in a substantially non-turbulent manner. The sample tubes are then left to stand for about 60 minutes during which time the Sepharose 4B together with bound BTG settles out of the incubate into the sucrose solution forming a deposit at the bottom of each tube.\nEach sample tube, in turn, is then placed in an auto-γ counter (Wallac Instruments Ltd) modified as shown in FIG. 1 and counted for a period of 49.9 seconds (this being the period required to yield 10,000 counts from the total amount of ^125 I-BTG added to each tube). The sample tubes are then left to stand for a further 16 hours, and each sample tube is again counted. The results obtained are given in Table I, dividing the counts obtained by 100 giving the results in terms of the percentage of the total ^125 I-BTG which has been bound in each case.\nWith reference to FIG. 1 the γ-counter has a well type detector into which the sample tube 1 enters. The detector is modified by placing a 2.5 cm length of plastic tube 2 in the bottom of the well and adding an annular disc 3 of lead screening material beneath customary annular plastic disc spill shield 4. In such an arrangement the source which is to be counted, the bound ^125 I BTG linked to the deposit of Sepharose 4B 5 at the bottom of the tube 1, is well within the detector. The free ^125 I BTG present in the 2 ml layer of aqueous incubate 6 is separated from the detector by the intervening 6 ml layer 7 of 10% w/v sucrose solution, and also the detector is shielded to a large extent against stray radiation from the free fraction by the disc 3 of lead screening material. For all intents and purposes the detector \"sees\" only radiation from the bound and not from the free fraction.", "key": {"[1]": {"conditions": "0 μg standard BTG, A after 1 hr. standing"}, "[2]": {"conditions": "0 μg standard BTG, B after 17 hrs. standing"}, "[3]": {"conditions": "Controls without antibody, A after 1 hr. standing"}, "[4]": {"conditions": "Controls without antibody, B after 17 hrs. standing"}, "[5]": {"conditions": "0.2 μg standard BTG, A after 1 hr. standing"}, "[6]": {"conditions": "0.2 μg standard BTG, B after 17 hrs. standing"}, "[7]": {"conditions": "0.4 μg standard BTG, A after 1 hr. standing"}, "[8]": {"conditions": "0.4 μg standard BTG, B after 17 hrs. standing"}, "[9]": {"conditions": "0.8 μg standard BTG, A after 1 hr. standing"}, "[10]": {"conditions": "0.8 μg standard BTG, B after 17 hrs. standing"}, "[11]": {"conditions": "1.6 μg standard BTG, A after 1 hr. standing"}, "[12]": {"conditions": "1.6 μg standard BTG, B after 17 hrs. standing"}, "[13]": {"conditions": "3.2 μg standard BTG, A after 1 hr. standing"}, "[14]": {"conditions": "3.2 μg standard BTG, B after 17 hrs. standing"}, "[15]": {"conditions": "6.4 μg standard BTG, A after 1 hr. standing"}, "[16]": {"conditions": "6.4 μg standard BTG, B after 17 hrs. standing"}, "[17]": {"conditions": "12.8 μg standard BTG, A after 1 hr. standing"}, "[18]": {"conditions": "12.8 μg standard BTG, B after 17 hrs. standing"}, "[19]": {"conditions": "25.6 μg standard BTG, A after 1 hr. standing"}, "[20]": {"conditions": "25.6 μg standard BTG, B after 17 hrs. standing"}}, "note": "Values joined by “and” are separate entries in the source; they are usually repeats but may differ in a detail not shown here. Equal values may be shown once.", "data": [{"molecule": "^125 I-BTG: radioiodinated BTG tracer of the radioimmunoassay (protein, UniProt P02775 48-128, looked up, Beta-thromboglobulin 125I label, radioiodinated BTG tracer of the radioimmunoassay) Beta-thromboglobulin: GKEESLDSDLYAELRCMCIKTTSGIHPKNIQSLEVIGKGTHCNQVEVIATLKDGRKICLDPDAPRIKKIVQKKLAGDESAD", "values": [{"measurement": "% bound (of total ^125 I-BTG)", "setting": "[1]", "result": 45.7, "unit": "%"}, {"measurement": "Counts (in 49.9 sec)", "setting": "[1]", "result": "4617 counts and 4492 counts and 4581 counts and 4599 counts"}, {"measurement": "% bound (of total ^125 I-BTG)", "setting": "[2]", "result": 45.1, "unit": "%"}, {"measurement": "Counts (in 49.9 sec)", "setting": "[2]", "result": "4584 counts and 4474 counts and 4503 counts and 4496 counts"}, {"measurement": "% bound (of total ^125 I-BTG)", "setting": "[3]", "result": 1.5, "unit": "%"}, {"measurement": "Counts (in 49.9 sec)", "setting": "[3]", "result": "133 counts and 180 counts"}, {"measurement": "% bound (of total ^125 I-BTG)", "setting": "[4]", "result": 1.5, "unit": "%"}, {"measurement": "Counts (in 49.9 sec)", "setting": "[4]", "result": "160 counts and 149 counts"}]}, {"molecule": "platelet β thromboglobulin (protein, UniProt P02775 48-128, looked up, Beta-thromboglobulin, standard BTG of known concentrations) Beta-thromboglobulin: GKEESLDSDLYAELRCMCIKTTSGIHPKNIQSLEVIGKGTHCNQVEVIATLKDGRKICLDPDAPRIKKIVQKKLAGDESAD", "values": [{"measurement": "% bound (of total ^125 I-BTG)", "setting": "[5]", "result": 32.3, "unit": "%"}, {"measurement": "Counts (in 49.9 sec)", "setting": "[5]", "result": "3061 counts and 3409 counts"}, {"measurement": "% bound (of total ^125 I-BTG)", "setting": "[6]", "result": 31.3, "unit": "%"}, {"measurement": "Counts (in 49.9 sec)", "setting": "[6]", "result": "3110 counts and 3154 counts"}, {"measurement": "% bound (of total ^125 I-BTG)", "setting": "[7]", "result": 27.2, "unit": "%"}, {"measurement": "Counts (in 49.9 sec)", "setting": "[7]", "result": "2657 counts and 2784 counts"}, {"measurement": "% bound (of total ^125 I-BTG)", "setting": "[8]", "result": 27.3, "unit": "%"}, {"measurement": "Counts (in 49.9 sec)", "setting": "[8]", "result": "2059 counts and 2816 counts"}, {"measurement": "% bound (of total ^125 I-BTG)", "setting": "[9]", "result": 22.0, "unit": "%"}, {"measurement": "Counts (in 49.9 sec)", "setting": "[9]", "result": "2117 counts and 2286 counts"}, {"measurement": "% bound (of total ^125 I-BTG)", "setting": "[10]", "result": 20.9, "unit": "%"}, {"measurement": "Counts (in 49.9 sec)", "setting": "[10]", "result": "2059 counts and 2129 counts"}, {"measurement": "% bound (of total ^125 I-BTG)", "setting": "[11]", "result": 15.1, "unit": "%"}, {"measurement": "Counts (in 49.9 sec)", "setting": "[11]", "result": "1469 counts and 1552 counts"}, {"measurement": "% bound (of total ^125 I-BTG)", "setting": "[12]", "result": 14.5, "unit": "%"}, {"measurement": "Counts (in 49.9 sec)", "setting": "[12]", "result": "1451 counts and 1447 counts"}, {"measurement": "% bound (of total ^125 I-BTG)", "setting": "[13]", "result": 10.4, "unit": "%"}, {"measurement": "Counts (in 49.9 sec)", "setting": "[13]", "result": "1103 counts and 986 counts"}, {"measurement": "% bound (of total ^125 I-BTG)", "setting": "[14]", "result": 9.9, "unit": "%"}, {"measurement": "Counts (in 49.9 sec)", "setting": "[14]", "result": "979 counts and 1001 counts"}, {"measurement": "% bound (of total ^125 I-BTG)", "setting": "[15]", "result": 7.1, "unit": "%"}, {"measurement": "Counts (in 49.9 sec)", "setting": "[15]", "result": "706 counts and 721 counts"}, {"measurement": "% bound (of total ^125 I-BTG)", "setting": "[16]", "result": 6.6, "unit": "%"}, {"measurement": "Counts (in 49.9 sec)", "setting": "[16]", "result": "650 counts and 665 counts"}, {"measurement": "% bound (of total ^125 I-BTG)", "setting": "[17]", "result": 4.8, "unit": "%"}, {"measurement": "Counts (in 49.9 sec)", "setting": "[17]", "result": "465 counts and 495 counts"}, {"measurement": "% bound (of total ^125 I-BTG)", "setting": "[18]", "result": 4.5, "unit": "%"}, {"measurement": "Counts (in 49.9 sec)", "setting": "[18]", "result": "440 counts and 458 counts"}, {"measurement": "% bound (of total ^125 I-BTG)", "setting": "[19]", "result": 3.5, "unit": "%"}, {"measurement": "Counts (in 49.9 sec)", "setting": "[19]", "result": "346 counts and 357 counts"}, {"measurement": "% bound (of total ^125 I-BTG)", "setting": "[20]", "result": 3.3, "unit": "%"}, {"measurement": "Counts (in 49.9 sec)", "setting": "[20]", "result": "337 counts and 321 counts"}]}]}
